Data as given in patent US20100015126A1, “Methods of Binding of Cross-Beta Structures By Chaperones” (priority 2006, published 2010).

Molecular target: T1, human mitochondrial HSP60 (Homo sapiens, UniProt P10809)
T1 construct: Dr. W. van Eden, Utrecht University; host or cells: E. coli
Test: ELISA: binding of HSP60 to immobilized (misfolded) protein ligands
Protocol: Recombinant human HSP60 with N-terminal His-tag was a kind gift of Dr. R. van der Zee and Prof. Dr. W. van Eden (Institute of Infectious Diseases and Immunology, Faculty of Veterinary Medicine, Utrecht University, Utrecht, The Netherlands), and was supplied in lyophilized form. The HSP60 was produced in E. coli and purified using Nickel-Sepharose. The HSP60 was lyophilized from 20-40 mM ammonium-bicarbonate solution, after purification, and stored at −20° C. The construct lacks the mitochondrial signal sequence. […] Before use, the lyophilized protein is dissolved at room temperature at 1 mg/ml in 20-40 mM NH4HCO3, resulting in a pH of 7.0. Aliquots are stored at −20° C. or −80° C. The mitochondrial HSP60 is a functional dimer of heptamers (MW(HSP60 monomer)=˜58 kDa), and is involved in multimer protein assembling and aids in transport of unfolded proteins across membranes. For the binding studies, at two occasions separate HSP60 solutions were prepared originating from the same batch of purified protein, lyophilized in separate Eppendorf cups.
Binding of chaperones to immobilized (misfolded) protein ligands was determined using an enzyme linked immuno sorbent assay (ELISA) approach. For this purpose 50 μl/well of potential ligands at indicated concentrations or coat buffer only for control and background measurement purposes, were coated overnight at 4° C. or coated for 1 h at room temperature, with motion, in 50 mM NaHCO3 pH 9.6 (coat buffer). In general, ligands were coated at 5 μg/ml, unless stated otherwise. For example, BiP binding peptides 6BB# and oxLDL were coated at 50 μg/ml. Native haemoglobin (Sigma-Aldrich, H7379), albumin, IgIV Gammagard and ovalbumin controls were prepared from lyophilized stocks. The controls were prepared by dissolving lyophilized proteins at 1 mg/ml in PBS upon resuspending by pipetting, followed by a 30 minutes period at the roller device, at room temperature. The protein solutions were centrifuged for 10 minutes at 16,000*g and diluted in coat buffer. After coating the plates were washed at least three times with 50 mM Tris-HCl pH 7.3, 150 mM NaCl, 0.1% v/v Tween20, and blocked with Blocking reagent (Roche Diagnostics, Almere, The Netherlands; 11112589001), for 1 h at room temperature, with motion. Plates were washed three times and incubated in triplicate with indicated chaperone dilution series, at 50 μl/well, for 1 h at room temperature, with constant motion. For HSP90, 5 mM DTT is incorporated in the binding buffer (PBS/0.1% Tween20) to avoid unwanted disulfide bond formation of the HSP90. Plates were washed three times and incubated with anti-FLAG antibody (mouse antibody, M2, peroxidase conjugate; Sigma, A-8592) for BiP-FLAG-His, anti-His-tag antibody (Mouse Monoclonal Antibody, Cat. No. 70796, Novagen [0.2 mg/ml]) for HSP60, a 1:1 mix of 500-fold diluted anti-HSP90beta antibodies (Stressgen, SPA-643 [mouse monoclonal IgM], SPA-646 [rabbit polyclonal]) for HSP90 and an anti-DnaK antibody (Stressgen, 023SPA-880D [mouse monoclonal antibody]) for DnaK. After four wash cycles, secondary antibodies were added to the wells when required, 50 μl/well, for 45′ at room temperature, with motion. RAMPO and SWARPO were used at 3000 times dilution. […] In a second experiment with more immobilized misfolded proteins and controls, the detection of bound HSP90 with the mix of two anti-HSP90 antibodies was achieved by mixing 1:1500 SWARPO with 1:3000 RAMPO. After 5 washes with wash buffer followed by two washes with PBS, binding of antibodies was assessed. Bound anti-FLAG-PO, peroxidase-conjugated rabbit anti-mouse immunoglobulins (RAMPO, P0260, DAKOCytomation, Glostrup, Denmark) or peroxidase-coupled swine anti-rabbit immunoglobulins (SWARPO, P0217, DAKOCytomation) was visualized with tetramethylbenzidine (TMB, #45.01.20,/#45.014.01, Biosource, Nivelles, Belgium). The reaction was stopped after 5 minutes with 1% H2SO4 in H2O. Plates were read at 450 nm. […]

T1 sequence (P10809 27-573): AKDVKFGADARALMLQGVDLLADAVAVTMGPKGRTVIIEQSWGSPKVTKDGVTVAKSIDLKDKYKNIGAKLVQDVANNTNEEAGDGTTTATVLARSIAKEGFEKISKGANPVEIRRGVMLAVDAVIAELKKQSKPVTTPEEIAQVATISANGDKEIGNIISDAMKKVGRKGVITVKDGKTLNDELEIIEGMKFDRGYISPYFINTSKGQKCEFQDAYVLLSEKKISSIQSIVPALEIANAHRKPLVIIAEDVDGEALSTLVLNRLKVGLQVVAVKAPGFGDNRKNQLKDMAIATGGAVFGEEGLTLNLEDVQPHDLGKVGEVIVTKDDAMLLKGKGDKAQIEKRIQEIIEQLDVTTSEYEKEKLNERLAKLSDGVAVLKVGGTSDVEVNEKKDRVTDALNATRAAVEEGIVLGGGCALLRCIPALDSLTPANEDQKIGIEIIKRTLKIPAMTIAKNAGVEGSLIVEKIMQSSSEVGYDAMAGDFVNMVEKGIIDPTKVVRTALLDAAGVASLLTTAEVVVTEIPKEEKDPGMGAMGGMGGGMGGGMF

| Substance | Binding of concentration series of HSP60 to coated ligand |
| --- | --- |
| native BSA: non-modified bovine serum albumin control | did not bind |
| BSA-AGE | has been established |
| GSNKGAIIGLM [6BB6, Human Aβ (25-35)] | has been established |
| Hb: non-modified human haemoglobin control | did not bind |
| HbAGE: human haemoglobin glycated with glucose-6-phosphate for 75 weeks | has been established |
| KLVFFAE [6BB12, Human Aβ16-22] | did not bind |
